From patent publication US5679639
Read-outs that look alike come from different tables or passages of the source. Each block holds one molecule with its values, some of them ahead of it. No end group written: not given here.

Assays:
[1] = biological target: activated protein C (APC) (human)
[2] = biological target: Factor Va (activated Factor V)
[3] = biological target: human activated Factor X (Xa) (human)
[4] = biological target: human activated Factor X (Xa) (human); remark: listed apart in the source
[5] = biological target: Factor Va (activated Factor V); remark: listed apart in the source
[6] = biological target: activated protein C (APC) (human); remark: listed apart in the source
[7] = biological target: Factor IXa (Homo sapiens (Human)); parameters: unit not given beside the values
[8] = biological target: Factor IXa (Homo sapiens (Human))
[9] = biological target: activated protein C (APC) (human); remark: listed apart in the source
[10] = biological target: activated protein C (APC) (human); remark: listed apart in the source
[11] = biological target: activated protein C (APC) (human); remark: listed apart in the source
[12] = biological target: human activated Factor X (Xa) (human); remark: listed apart in the source
[13] = biological target: Factor Va (activated Factor V); remark: listed apart in the source
[14] = biological target: Factor Va (activated Factor V); remark: listed apart in the source
[15] = biological target: Factor Va (activated Factor V); remark: listed apart in the source

Molecule: synthetic peptide PC65-79
Inhibition of APC (%), Xa-1 stage coagulation assay in NHP, 500 µM peptide [1]: 0%

Molecule: synthetic peptide PT557-571
IC50, Factor Xa-1 stage clotting assay [3]: 50 µM
IC50, prothrombinase assay in the absence of Factor Va [4]: 80 µM
IC50, prothrombinase assay in the presence of Factor Va [4]: 40 µM

Molecule: synthetic peptide PT463-478
IC50, Factor Xa-1 stage clotting assay [3]: > 500 µM

Molecule: synthetic peptide PC110-124
Inhibition of APC (%), Xa-1 stage coagulation assay in NHP, 500 µM peptide [1]: 0%

B1: synthetic peptide PC317-331 (peptide)
peptide: VLNFIKIPVVPHNEC-NH2
IC90** (concentration of peptide that inhibits 90% of APC anticoagulant activity), mean of APTT and Xa-1 stage coagulation assays in NHP [6]: 500 µM

B2: synthetic peptide IX400-414 (peptide)
peptide: KVSRYVNWIKEKTKL-NH2
IC50, Factor IXa-1 stage clotting assay [7]: 50
IC50, tenase assay in the presence of Factor VIIIa [8]: 100 to 140 µM

B6: synthetic peptide PC311-325 (peptide)
peptide: KRNRTFVLNFIKIPV-NH2
IC90** (concentration of peptide that inhibits 90% of APC anticoagulant activity), mean of APTT and Xa-1 stage coagulation assays in NHP [6]: 50 µM
APC amidolytic activity towards S-2366, change in A405/5 minutes (none: 0.374) (A405/5 minutes) [10]: 0.342
50% inhibition of APC anticoagulant activity in APTT and Xa-1-stage assays in NHP and PSDP [11]: 7 to 20 µM
APC-catalyzed inactivation of Factor Va in the absence of phospholipids [2]: 87%
half-maximal inhibition of the APC-catalyzed inactivation of Factor Va, with phospholipid vesicles [2]: 6 µM
Factor Xa clotting activity in NHP (0.15 nM factor Xa) [12]: 7 µM
prothrombinase activity in the presence of Factor Va (1 nM Xa, 0.4 nM Va, 1.2 µM prothrombin) [13]: 8 µM

B8: synthetic peptide PC121-135 (peptide)
peptide: APGYKLGDDLLQCHP-NH2
modifications: also: native Cys substituted by Ser or Gly, which position not given here
Inhibition of APC (%), Xa-1 stage coagulation assay in NHP, 500 µM peptide [1]: 0%

B9: synthetic peptide IX395-409 (peptide)
peptide: YGIYTKVSRYVNWIK-NH2
IC50, Factor IXa-1 stage clotting assay [7]: 25
IC50, tenase assay (Factor Xa generation) in the presence of Factor VIIIa [8]: 6 µM
IC50, tenase assay in the absence of VIIIa [8]: 40 to 60 µM

B10: synthetic peptide PC142-155 with an additional carboxy-terminal cysteine (peptide)
peptide: GRPWKRMEKKRSHLC-NH2
Inhibition of APC (%), Xa-1 stage coagulation assay in NHP, 500 µM peptide [1]: 80%
APC amidolytic activity towards S-2366, change in A405/5 minutes (none: 0.374) (A405/5 minutes) [10]: 0.344
50% inhibition of APC anticoagulant activity, Xa-1-stage coagulation assay in NHP [9]: 25 µM
50% inhibition of APC anticoagulant activity, Xa-1-stage coagulation assay in protein S-depleted plasma [9]: 5 µM
APC-catalyzed inactivation of Factor Va in the absence of phospholipids [14]: 87%
half-maximal inhibition of the APC-catalyzed inactivation of Factor Va, with phospholipid vesicles [14]: 50 µM
Factor Xa clotting activity in NHP (0.15 nM factor Xa) [12]: 10 µM
prothrombinase activity in the presence of Factor Va [13]: 40 µM

B12: synthetic peptide X329-344 (peptide)
peptide: EKGRQSTRLKMLEVPY-NH2
IC50, Factor Xa-1 stage clotting assay [3]: 500 µM

B14: synthetic peptide PC125-139 (peptide)
peptide: KLGDDLLQCHPAVKF-NH2
modifications: also: native Cys substituted by Ser or Gly, which position not given here
Inhibition of APC (%), Xa-1 stage coagulation assay in NHP, 500 µM peptide [1]: 30%

B16: synthetic peptide X415-429 (peptide)
peptide: VTAFLKWIDRSMKTR-NH2
IC50, Factor Xa-1 stage clotting assay [3]: 115 µM
IC50, Factor IXa-1 stage clotting assay [7]: 0
IC50, prothrombinase assay with or without Factor Va [4]: 500 µM
IC50, tenase assay in the presence of VIIIa [8]: 45 µM

B17: synthetic peptide IX315-330 (peptide)
peptide: HKGRSALVLQYLRVPL-NH2
IC50, Factor IXa-1 stage clotting assay [7]: 30
IC50, tenase assay (Factor Xa generation) in the presence of Factor VIIIa [8]: 2 µM
IC50, tenase assay in the absence of VIIIa [8]: 40 to 60 µM

B18: synthetic peptide PC81-95 (peptide)
peptide: RSGWEGRFCQREVSF-NH2
modifications: also: native Cys substituted by Ser or Gly, which position not given here
Inhibition of APC (%), Xa-1 stage coagulation assay in NHP, 500 µM peptide [1]: 40%

Second part, the molecule after the results:

rate of Factor Va inactivation (% Vi/min), 5 nM APC and 40 nM Va, no phospholipids [2]: 4 % Vi/min
Molecule: activated protein C (APC) (enzyme)

Inhibition of APC (%), Xa-1 stage coagulation assay in NHP, 500 µM peptide [1]: 0%
Molecule: synthetic peptide PC48-62

IC50, Factor Xa-1 stage clotting assay [3]: 25 µM
IC50, prothrombinase assay in the presence of Factor Va (1 nM Xa, 0.4 nM Va, 1.2 uM prothrombin) [5]: 10 µM
Molecule: synthetic peptide PT473-487

Inhibition of APC (%), Xa-1 stage coagulation assay in NHP, 500 µM peptide [1]: 66%
50% inhibition of APC anticoagulant activity, Xa-1-stage assay in NHP [9]: 250 µM
B3: synthetic peptide PC134-148 (peptide)
peptide: HPAVKFPCGRPWKRM-NH2
modifications: also: native Cys substituted by Ser or Gly, which position not given here

Inhibition of APC (%), Xa-1 stage coagulation assay in NHP, 500 µM peptide [1]: 0%
B4: synthetic peptide PC36-50 (peptide)
peptide: DTLAFWSKHVDGDQC-NH2
modifications: also: native Cys substituted by Ser or Gly, which position not given here

Inhibition of APC (%), Xa-1 stage coagulation assay in NHP, 500 µM peptide [1]: 0%
B5: synthetic peptide PC43-57 (peptide)
peptide: KHVDGDQCLVLPLEH-NH2
modifications: also: native Cys substituted by Ser or Gly, which position not given here

Factor Xa clotting activity in NHP (0.15 nM factor Xa) [12]: 30%
B7: control peptide with a randomized sequence of residues 311-325 (peptide)
peptide: VKFTIRVFNPRNLKI-NH2

IC50, Factor IXa-1 stage clotting assay [7]: 30
IC50, tenase assay in the presence of Factor VIIIa [8]: 100 to 140 µM
B11: synthetic peptide IX321-335 (peptide)
peptide: LVLQYLRVPLVDRAT-NH2

IC50, Factor Xa-1 stage clotting assay [3]: > 500 µM
B13: synthetic peptide PT481-495 (peptide)
peptide: QVVNLPIVERPVSKD-NH2
modifications: not fully specified

APC amidolytic activity towards S-2366, change in A405/5 minutes (none: 0.374) (A405/5 minutes) [10]: 0.364
Factor Xa clotting activity in NHP (0.15 nM factor Xa) [12]: 37%
prothrombinase activity in the presence of Factor Va [15]: 40%
B15: scrambled peptide with a randomized sequence of residues 142-155 (peptide)
peptide: MHKLREGKWRPKSR-NH2

IC50, Factor Xa-1 stage clotting assay [3]: 50 µM
IC50, Factor IXa-1 stage clotting assay [7]: 50
IC50, prothrombinase assay in the presence of Factor Va (1 nM Xa, 0.4 nM Va, 1.2 uM prothrombin) [5]: 75 µM
IC50, tenase assay in the presence of VIIIa [8]: 150 µM
B19: synthetic peptide X404-418 (peptide)
peptide: ARKGKYGIYTKVTAF-NH2
